Measured values taken from patent US20220017612A1 (TILOS THERAPEUTICS, published 2022).

The binders below were run against biotinylated human LAP-TGFβ1 (Example 14) (human, UniProt P01137 30-390, biotinylated, sites not stated) (assay: BLI, antigen on tip, CHO supernatant; ratio to wild type).
Procedure: A total of 49 single alanine substitutions were made in the heavy and light chain CDRs of the antibody to identify critical residues for human LAP-TGFβ1 binding. In addition, residue A25 in the light chain was substituted with glycine. Plasmid DNA for these variants was transfected into ExpiCHO cells in 1 mL cultures on 24-well plates, along with wells containing no DNA (negative control) and wells transfected with DNA for the wild-type antibody (positive control). IgG concentrations in each well were determined by binding to Protein A-functionalized tips. Tips were dipped into wells containing the supernatants from each culture. IgG concentrations were determined by comparing the rate of signal change for each well against the rate of signal change for a standard curve of purified 20E6_H0.2aL1_hIgG1 antibody diluted into ExpiCHO media. CHO supernatants were diluted to 0.6 μg/mL in media. A streptavidin-functionalized tip was equilibrated in binding buffer (10 mM sodium phosphate, 150 mM sodium chloride, 1% (w/v) bovine serum albumin, 0.05% (w/v) sodium azide, pH 7.4) and then dipped in a 5 μg/mL solution of biotinylated human LAP-TGFβ1 in binding buffer for 60 seconds to load the tip with antigen. The antigen-loaded tip was then washed in binding buffer and placed in the diluted CHO supernatant. The antigen was allowed to bind to antibody for 5 minutes (association phase), and then the tip was moved to binding buffer (dissociation phase). The association and dissociation phases were fit to a 1:1 binding model to determine binding rate constants.

Chain of biotinylated human LAP-TGFβ1 (Example 14) (P01137 30-390 limits assumed): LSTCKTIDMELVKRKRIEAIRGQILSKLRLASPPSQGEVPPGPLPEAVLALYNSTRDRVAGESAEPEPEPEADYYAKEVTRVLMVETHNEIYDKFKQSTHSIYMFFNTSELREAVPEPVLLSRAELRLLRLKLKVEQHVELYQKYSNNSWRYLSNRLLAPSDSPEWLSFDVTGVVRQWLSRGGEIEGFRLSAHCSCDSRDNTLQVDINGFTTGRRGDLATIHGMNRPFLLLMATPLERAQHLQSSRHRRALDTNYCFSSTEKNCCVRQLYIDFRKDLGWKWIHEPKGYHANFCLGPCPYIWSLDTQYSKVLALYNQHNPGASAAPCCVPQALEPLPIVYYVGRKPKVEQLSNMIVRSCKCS

Row | Binder | KD,WT/KD,Ala
1 | 20E6_H0.2aL1_hIgG1 VH_W33A (antibody, V domains shown) VH: EVQLVQSGAEVKKPGASVKVSCKASGYTFTSYAMHWVRQAPGQGLEWMGRIDPQSGGIKYAQKFQGRATLTVDTSTSTAYMELSRLRSDDTAVYYCARWDYGGYFDVWGQGTLVTVSS VL: DIQMTQSPSSLSASVGDRVTITCRASQDITNYLNWYQQKPGKAVKLLIYYTSRLHSGVPSRFSGSGSGTDYTLTISSLQPEDFATYFCQQGDTLPWTFGQGTKLEIKR | 0.12
2 | 20E6_H0.2aL1_hIgG1 VL_S52A (antibody, V domains shown) VH: EVQLVQSGAEVKKPGASVKVSCKASGYTFTSYWMHWVRQAPGQGLEWMGRIDPQSGGIKYAQKFQGRATLTVDTSTSTAYMELSRLRSDDTAVYYCARWDYGGYFDVWGQGTLVTVSS VL: DIQMTQSPSSLSASVGDRVTITCRASQDITNYLNWYQQKPGKAVKLLIYYTARLHSGVPSRFSGSGSGTDYTLTISSLQPEDFATYFCQQGDTLPWTFGQGTKLEIKR | 0.12
3 | 20E6_H0.2aL1_hIgG1 VL_N31A (antibody, V domains shown) VH: EVQLVQSGAEVKKPGASVKVSCKASGYTFTSYWMHWVRQAPGQGLEWMGRIDPQSGGIKYAQKFQGRATLTVDTSTSTAYMELSRLRSDDTAVYYCARWDYGGYFDVWGQGTLVTVSS VL: DIQMTQSPSSLSASVGDRVTITCRASQDITAYLNWYQQKPGKAVKLLIYYTSRLHSGVPSRFSGSGSGTDYTLTISSLQPEDFATYFCQQGDTLPWTFGQGTKLEIKR | 0.48
4 | 20E6_H0.2aL1_hIgG1 VL_Q89A (antibody, V domains shown) VH: EVQLVQSGAEVKKPGASVKVSCKASGYTFTSYWMHWVRQAPGQGLEWMGRIDPQSGGIKYAQKFQGRATLTVDTSTSTAYMELSRLRSDDTAVYYCARWDYGGYFDVWGQGTLVTVSS VL: DIQMTQSPSSLSASVGDRVTITCRASQDITNYLNWYQQKPGKAVKLLIYYTSRLHSGVPSRFSGSGSGTDYTLTISSLQPEDFATYFCAQGDTLPWTFGQGTKLEIKR | 0.01
5 | 20E6_H0.2aL1_hIgG1 VH_Y27A (antibody, V domains shown) VH: EVQLVQSGAEVKKPGASVKVSCKASGATFTSYWMHWVRQAPGQGLEWMGRIDPQSGGIKYAQKFQGRATLTVDTSTSTAYMELSRLRSDDTAVYYCARWDYGGYFDVWGQGTLVTVSS VL: DIQMTQSPSSLSASVGDRVTITCRASQDITNYLNWYQQKPGKAVKLLIYYTSRLHSGVPSRFSGSGSGTDYTLTISSLQPEDFATYFCQQGDTLPWTFGQGTKLEIKR | 1.29
6 | 20E6_H0.2aL1_hIgG1 VL_L54A (antibody, V domains shown) VH: EVQLVQSGAEVKKPGASVKVSCKASGYTFTSYWMHWVRQAPGQGLEWMGRIDPQSGGIKYAQKFQGRATLTVDTSTSTAYMELSRLRSDDTAVYYCARWDYGGYFDVWGQGTLVTVSS VL: DIQMTQSPSSLSASVGDRVTITCRASQDITNYLNWYQQKPGKAVKLLIYYTSRAHSGVPSRFSGSGSGTDYTLTISSLQPEDFATYFCQQGDTLPWTFGQGTKLEIKR | 0.1
7 | 20E6_H0.2aL1_hIgG1 VH_Y32A (antibody, V domains shown) VH: EVQLVQSGAEVKKPGASVKVSCKASGYTFTSAWMHWVRQAPGQGLEWMGRIDPQSGGIKYAQKFQGRATLTVDTSTSTAYMELSRLRSDDTAVYYCARWDYGGYFDVWGQGTLVTVSS VL: DIQMTQSPSSLSASVGDRVTITCRASQDITNYLNWYQQKPGKAVKLLIYYTSRLHSGVPSRFSGSGSGTDYTLTISSLQPEDFATYFCQQGDTLPWTFGQGTKLEIKR | 1
8 | 20E6_H0.2aL1_hIgG1 VL_T30A (antibody, V domains shown) VH: EVQLVQSGAEVKKPGASVKVSCKASGYTFTSYWMHWVRQAPGQGLEWMGRIDPQSGGIKYAQKFQGRATLTVDTSTSTAYMELSRLRSDDTAVYYCARWDYGGYFDVWGQGTLVTVSS VL: DIQMTQSPSSLSASVGDRVTITCRASQDIANYLNWYQQKPGKAVKLLIYYTSRLHSGVPSRFSGSGSGTDYTLTISSLQPEDFATYFCQQGDTLPWTFGQGTKLEIKR | 1
9 | 20E6_H0.2aL1_hIgG1 VL_T93A (antibody, V domains shown) VH: EVQLVQSGAEVKKPGASVKVSCKASGYTFTSYWMHWVRQAPGQGLEWMGRIDPQSGGIKYAQKFQGRATLTVDTSTSTAYMELSRLRSDDTAVYYCARWDYGGYFDVWGQGTLVTVSS VL: DIQMTQSPSSLSASVGDRVTITCRASQDITNYLNWYQQKPGKAVKLLIYYTSRLHSGVPSRFSGSGSGTDYTLTISSLQPEDFATYFCQQGDALPWTFGQGTKLEIKR | 0.64
10 | 20E6_H0.2aL1_hIgG1 VL_H55A (antibody, V domains shown) VH: EVQLVQSGAEVKKPGASVKVSCKASGYTFTSYWMHWVRQAPGQGLEWMGRIDPQSGGIKYAQKFQGRATLTVDTSTSTAYMELSRLRSDDTAVYYCARWDYGGYFDVWGQGTLVTVSS VL: DIQMTQSPSSLSASVGDRVTITCRASQDITNYLNWYQQKPGKAVKLLIYYTSRLASGVPSRFSGSGSGTDYTLTISSLQPEDFATYFCQQGDTLPWTFGQGTKLEIKR | 0.33
11 | 20E6_H0.2aL1_hIgG1 VL_R53A (antibody, V domains shown) VH: EVQLVQSGAEVKKPGASVKVSCKASGYTFTSYWMHWVRQAPGQGLEWMGRIDPQSGGIKYAQKFQGRATLTVDTSTSTAYMELSRLRSDDTAVYYCARWDYGGYFDVWGQGTLVTVSS VL: DIQMTQSPSSLSASVGDRVTITCRASQDITNYLNWYQQKPGKAVKLLIYYTSALHSGVPSRFSGSGSGTDYTLTISSLQPEDFATYFCQQGDTLPWTFGQGTKLEIKR | 0.02
12 | 20E6_H0.2aL1_hIgG1 VL_I29A (antibody, V domains shown) VH: EVQLVQSGAEVKKPGASVKVSCKASGYTFTSYWMHWVRQAPGQGLEWMGRIDPQSGGIKYAQKFQGRATLTVDTSTSTAYMELSRLRSDDTAVYYCARWDYGGYFDVWGQGTLVTVSS VL: DIQMTQSPSSLSASVGDRVTITCRASQDATNYLNWYQQKPGKAVKLLIYYTSRLHSGVPSRFSGSGSGTDYTLTISSLQPEDFATYFCQQGDTLPWTFGQGTKLEIKR | 0.02
13 | 20E6_H0.2aL1_hIgG1 VL_R24A (antibody, V domains shown) VH: EVQLVQSGAEVKKPGASVKVSCKASGYTFTSYWMHWVRQAPGQGLEWMGRIDPQSGGIKYAQKFQGRATLTVDTSTSTAYMELSRLRSDDTAVYYCARWDYGGYFDVWGQGTLVTVSS VL: DIQMTQSPSSLSASVGDRVTITCAASQDITNYLNWYQQKPGKAVKLLIYYTSRLHSGVPSRFSGSGSGTDYTLTISSLQPEDFATYFCQQGDTLPWTFGQGTKLEIKR | 0.01
14 | 20E6_H0.2aL1_hIgG1 VL_T51A (antibody, V domains shown) VH: EVQLVQSGAEVKKPGASVKVSCKASGYTFTSYWMHWVRQAPGQGLEWMGRIDPQSGGIKYAQKFQGRATLTVDTSTSTAYMELSRLRSDDTAVYYCARWDYGGYFDVWGQGTLVTVSS VL: DIQMTQSPSSLSASVGDRVTITCRASQDITNYLNWYQQKPGKAVKLLIYYASRLHSGVPSRFSGSGSGTDYTLTISSLQPEDFATYFCQQGDTLPWTFGQGTKLEIKR | 0.8

These binders were tested against T1, human LAP-TGFβ1 overexpressed on cells (human, UniProt P01137 30-390) (assay: flow cytometry; black bar HT1080-huB1, grey bar HT1080).
T1 construct: HT1080 or P3U1 cells overexpressing wild-type human LAP-TGFβ1; also called HT1080-huB1; HT1080-hβ1
T1 sequence (P01137 30-390): as the sequence (P01137 30-390 limits assumed) above

Row | Binder | binding result
15 | L109V_F87Y (antibody, human IgG1, kappa, V domains shown, also called 28G11_H2L3 with HC L109V and LC F87Y) VH: EVQLVESGGGLVQPGGSLRLSCAASGFTFTDYYMSWVRQAPGKGLEWLGFIRNKPNGYTTEYSASVKGRFTISRDNSQSSLYLQMNSLKTEDTAVYYCARYTGGGYFDYWGQGTLVTVSS VL: DIQMTQSPSSLSASVGDRLTISCRASQDISNYLNWYQQKPGKTVKLLIYYTSRLHSGVPSRFSGSGSGTDYTLTISSLQPEDVATYYCQQGDTLPWTFGQGTKLEIKR | binds
16 | L109V_T43V (antibody, human IgG1, kappa, V domains shown, also called 28G11_H2L3 with HC L109V and LC T43V) VH: EVQLVESGGGLVQPGGSLRLSCAASGFTFTDYYMSWVRQAPGKGLEWLGFIRNKPNGYTTEYSASVKGRFTISRDNSQSSLYLQMNSLKTEDTAVYYCARYTGGGYFDYWGQGTLVTVSS VL: DIQMTQSPSSLSASVGDRLTISCRASQDISNYLNWYQQKPGKVVKLLIYYTSRLHSGVPSRFSGSGSGTDYTLTISSLQPEDVATYFCQQGDTLPWTFGQGTKLEIKR | binds
17 | L48V_F87Y (antibody, human IgG1, kappa, V domains shown, also called 28G11_H2L3 with HC L48V and LC F87Y) VH: EVQLVESGGGLVQPGGSLRLSCAASGFTFTDYYMSWVRQAPGKGLEWVGFIRNKPNGYTTEYSASVKGRFTISRDNSQSSLYLQMNSLKTEDTAVYYCARYTGGGYFDYWGQGTLLTVSS VL: DIQMTQSPSSLSASVGDRLTISCRASQDISNYLNWYQQKPGKTVKLLIYYTSRLHSGVPSRFSGSGSGTDYTLTISSLQPEDVATYYCQQGDTLPWTFGQGTKLEIKR | binds
18 | L48V_V44P (antibody, human IgG1, kappa, V domains shown, also called 28G11_H2L3 with HC L48V and LC V44P) VH: EVQLVESGGGLVQPGGSLRLSCAASGFTFTDYYMSWVRQAPGKGLEWVGFIRNKPNGYTTEYSASVKGRFTISRDNSQSSLYLQMNSLKTEDTAVYYCARYTGGGYFDYWGQGTLLTVSS VL: DIQMTQSPSSLSASVGDRLTISCRASQDISNYLNWYQQKPGKTPKLLIYYTSRLHSGVPSRFSGSGSGTDYTLTISSLQPEDVATYFCQQGDTLPWTFGQGTKLEIKR | binds
19 | L48V_WT (antibody, human IgG1, kappa, V domains shown, also called 28G11_H2L3 with HC L48V) VH: EVQLVESGGGLVQPGGSLRLSCAASGFTFTDYYMSWVRQAPGKGLEWVGFIRNKPNGYTTEYSASVKGRFTISRDNSQSSLYLQMNSLKTEDTAVYYCARYTGGGYFDYWGQGTLLTVSS VL: DIQMTQSPSSLSASVGDRLTISCRASQDISNYLNWYQQKPGKTVKLLIYYTSRLHSGVPSRFSGSGSGTDYTLTISSLQPEDVATYFCQQGDTLPWTFGQGTKLEIKR | binds
